# Results published in patent US20060193851A1.
# Test system: 10C12 F(ab')2-leucine zipper
substance,measurement,value
factor X,rate of FX activation by relipidated TF(1-243):FVIIa after incubating 10C12 with the substrate FX,10C12 at up to 200 µg/ml did not inhibit FXa generation in either experimental setting
